Experimental data reported in doi:10.1101/2023.01.10.523203 (bioRxiv, 2023).
Where “and” joins values, the source holds several entries; their conditions need not be identical. Identical values can stand only once.

Target: the molecule itself
Assay: SEC

B1: LZTR1^L580P recombinant protein (LZTR1-Myc-6xHis with p.L580P) (natural protein)
chain: MAGPGSTGGQIGAAALAGGARSKVAPSVDFDHSCSDSVEYLTLNFGPFETVHRWRRLPPCDEFVGARRSKHTVVAYKDAIYVFGGDNGKTMLNDLLRFDVKDCSWCRAFTTGTPPAPRYHHSAVVYGSSMFVFGGYTGDIYSNSNLKNKNDLFEYKFATGQWTEWKIEGRLPVARSAHGATVYSDKLWIFAGYDGNARLNDMWTIGLQDRELTCWEEVAQSGEIPPSCCNFPVAVCRDKMFVFSGQSGAKITNNLFQFEFKDKTWTRIPTEHLLRGSPPPPQRRYGHTMVAFDRHLYVFGGAADNTLPNELHCYDVDFQTWEVVQPSSDSEVGGAEVPERACASEEVPTLTYEERVGFKKSRDVFGLDFGTTSAKQPTQPASELPSGRLFHAAAVISDAMYIFGGTVDNNIRSGEMYRFQFSCYPKCTLHEDYGRLWESRQFCDVEFVLGEKEECVQGHVAIVTARSRWLRRKITQARERLAQKLEQEAAPVPREAPGVAAGGARPPLLHVAIREAEARPFEVLMQFLYTDKIKYPRKGHVEDVLLIMDVYKLALSFQLCRLEQLCRQYIEASVDLQNVPVVCESAARLQLSQLKEHCLNFVVKESHFNQVIMMKEFERLSSPLIVEIVRRKQQPPPRTPLDQPVDIGTSLIQDMKAYLEGAGAEFCDITLLLDGHPRPAHKAILAARSSYFEAMFRSFMPEDGQVNISIGEMVPSRQAFESMLRYIYYGEVNMPPEDSLYLFAAPYYYGFYNNRLQAYCKQNLEMNVTVQNVLQILEAADKTQALDMKRHCLHIIVHQFTKVSKLPTLRSLSQQLLLDIIDSLASHISDKQCAELGADI
stoichiometry N: 6 and 4
